# T1: His-tagged cynomolgus 4-1BB protein (cynomolgus, UniProt A9YYE7 24-186)
# T1 construct: Coated on ELISA plates at 2 µg/ml; also called Cyno 4-1BB; soluble cynomolgus 4-1BB; not shown: His tag
# T1 sequence: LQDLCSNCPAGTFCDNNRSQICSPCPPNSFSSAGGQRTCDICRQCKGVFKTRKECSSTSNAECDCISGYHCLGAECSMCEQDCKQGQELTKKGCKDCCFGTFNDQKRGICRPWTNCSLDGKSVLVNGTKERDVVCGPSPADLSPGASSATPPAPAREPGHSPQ
# What was measured:
# [1] = molecular target: T2, His-tagged human 4-1BB protein (human, UniProt Q07011 24-186); assay: ELISA, coated His-tagged 4-1BB, anti-human IgG-HRP
# T2 construct: Coated on ELISA plates at 2 µg/ml; also called hu4-1BB; soluble human 4-1BB; not shown: His tag
# Description: (§1) His-tagged 4-1BB was coated at 2 μg/ml overnight and then blocked by 2% BSA in PBS. Serially diluted anti-4-1BB nanobodies were incubated with the coated antigen for 1h at room temperature with a reference antibody “Ref mAb”. The resulting plates were washed with PBS/T and incubated with goat anti-human IgG-HRP for 1 h at room temperature. The plates were developed with TMB substrate and analyzed by spectrophotometer at OD 450 nm.
# [2] = molecular target: T1, His-tagged cynomolgus 4-1BB protein; assay: ELISA, coated His-tagged 4-1BB, anti-human IgG-HRP
# Description: as §1
# [3] = molecular target: T3, human 4-1BB expressed on cells (human, UniProt Q07011 24-255); assay: cell-based or functional assay
# T3 sequence (Q07011 24-255): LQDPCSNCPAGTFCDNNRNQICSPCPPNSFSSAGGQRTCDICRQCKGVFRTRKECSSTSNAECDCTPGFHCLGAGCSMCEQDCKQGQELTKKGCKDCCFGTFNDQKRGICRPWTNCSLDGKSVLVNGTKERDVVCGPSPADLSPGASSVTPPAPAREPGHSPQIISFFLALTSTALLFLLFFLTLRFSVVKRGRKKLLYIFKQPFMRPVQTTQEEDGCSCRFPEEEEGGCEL
# [4] = molecular target: T3, human 4-1BB expressed on cells; assay: flow cytometry competition with biotinylated human 4-1BB ligand on CHO-K1/human 4-1BB cells
# Description: CHO-K1 cells overexpressing human 4-1BB were incubated with biotinylated human 4-1BB ligand (0.3 μg/ml) in the presence of serial diluted anti-41BB nanobodies for 1 h at 4° C. with Ref mAb as the reference antibody. Then, cells were incubated with Alexa Fluor 633-conjugated streptavidin. Binding was measured with an Agilent flow cytometer. As shown in FIG. 2 and Table 3, all of the tested nanobodies could block 4-1BB ligand binding to 4-1BB in a concentration-dependent manner while Ref mAb had no such effect.
Binder,EC50 [1] [nM],EC50 [2] [nM],EC50 (nM) in Jurkat-41BB NFκB reporter assay [3] [nM],IC50 [4] [nM]
"VV02-1SP (1)-168 (Fc fusion, not shown: a dimerising Fc or GST; small tags and cut ends, Llama nanobody tested as fusion with human IgG1 Fc (N297A)) VHH: QVQLVESGGGLVQPGGSLRLSCAASGFTFSSYAMSWARQAPGKDFEWVSYIYSDGNTYYADSVKGRFTISRDNAKNTVYLQMNSLKPEDTAVYYCATWHTLRVGVWDEYDYWGQGTQVTVSS",> 30,0.06,0.002,0.387
"VV02-1LP-263 (Fc fusion, Llama nanobody tested as fusion with human IgG1 Fc (N297A); not shown: Human IgG1 Fc fragment with N297A, fused at the C-terminus of the VHH) VHH: EVQLVESGGGLVQPGGSLRLSCAASGFTFSSSAMSWARQTPGKGFEWVSGIYSDGSTYYTDSVKDRFTISRDNAKNTVYLQMNSLKPEDTAVYYCATWGTLRFGVWAEYDHWGQGTQVTVSS",> 30,0.04,0.017,0.566

# Now those with a lower EC50 [1], led by results:
EC50 [1] [nM],EC50 [2] [nM],EC50 (nM) in Jurkat-41BB NFκB reporter assay [3] [nM],IC50 [4] [nM],Binder
9.12,26.5,0.008,1.88,"VV02-1LP-238 (Fc fusion, not shown: a dimerising Fc or GST; small tags and cut ends, Llama nanobody tested as fusion with human IgG1 Fc (N297A)) VHH: QVQLVESGGGLVQAGGALRLSCAASGFTLDYSAIGWFRQAPGKEREGVLCISSSGDVTIYADSVKGRFTISRDNAKNTVYLQMNSLKPEDTAVYYCVAPRICSTYSSDDYWGQGTQVTVSS"
0.37,6.94,0.013,1.48,"VV02-1LP-422 (Fc fusion, not shown: a dimerising Fc or GST; small tags and cut ends, Llama nanobody tested as fusion with human IgG1 Fc (N297A)) VHH: QLQLVESGGGLVQPGGSLRLSCAASGFTLADYAIGWFRQAPGKEREGVLCISSSGDVTIYADSVKGRFTISRDNAKNTVYLQMNSLKPEDTAVYYCVAPRICSTYSSDDYWGQGTQVTVSS"

# From patent US20240383993A1 (LANOVA MEDICINES, published 2024)
